Numbering of substitutions follows the chain as printed. Each block holds one binder with its values, some of them ahead of it.
What was measured:
[1] = biological target: T1, murine CD38 on transiently transfected Expi293 cells (Origene MC208001) (murine, UniProt P56528 1-304); experiment: flow cytometry, transfected Expi293 cells;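 further: antibody binding to Expi293 cells transiently expressing human or murine CD38, antibodies applied at 10 ug/ml for 60 min on ice, read by flow cytometry as percent gated cells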
T1 construct: whole, on cells; also called Murine (FACs)
T1 sequence (looked up): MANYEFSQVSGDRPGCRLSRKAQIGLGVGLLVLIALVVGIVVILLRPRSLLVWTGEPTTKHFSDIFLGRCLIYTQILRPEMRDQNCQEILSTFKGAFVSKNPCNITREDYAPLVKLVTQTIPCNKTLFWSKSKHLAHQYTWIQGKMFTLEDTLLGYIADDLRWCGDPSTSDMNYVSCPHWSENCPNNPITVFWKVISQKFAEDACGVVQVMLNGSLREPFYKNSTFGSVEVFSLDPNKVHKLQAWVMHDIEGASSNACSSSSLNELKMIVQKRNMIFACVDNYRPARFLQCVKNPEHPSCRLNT

[2] = biological target: T2, human CD38 on transiently transfected Expi293 cells (Origene #SC321273) (human, UniProt P28907 1-300); experiment: flow cytometry, transfected Expi293 cells;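 further: antibody binding to Expi293 cells transiently expressing human or murine CD38, antibodies applied at 10 ug/ml for 60 min on ice, read by flow cytometry as percent gated cells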
T2 construct: whole, on cells; also called Human (FACs)

[3] = biological target: T3, His-tagged cynomolgus monkey CD38 (ACRO Biosystems cat #CD8-05223) (cynomolgus monkey, UniProt Q5VAN0 43-301); experiment: SPR, captured scFv-Fc, His-CD38 analyte;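 further: SPR on a Carterra LSA, scFv-Fc captured by anti-human Fc on HC30M chip, His-tagged CD38 (human, mouse, cynomolgus) flowed as analyte in eight 1:2 steps from 400 nM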
T3 construct: bought recombinant protein with His tag

[4] = biological target: T4, His-tagged mouse CD38 (ACRO Biosystems #CD8-M5223) (mouse, UniProt P56528 45-304); experiment: SPR, captured scFv-Fc, His-CD38 analyte;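 further: SPR on a Carterra LSA, scFv-Fc captured by anti-human Fc on HC30M chip, His-tagged CD38 (human, mouse, cynomolgus) flowed as analyte in eight 1:2 steps from 400 nM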
T4 construct: bought recombinant protein with His tag; also called Murine
T4 sequence (looked up): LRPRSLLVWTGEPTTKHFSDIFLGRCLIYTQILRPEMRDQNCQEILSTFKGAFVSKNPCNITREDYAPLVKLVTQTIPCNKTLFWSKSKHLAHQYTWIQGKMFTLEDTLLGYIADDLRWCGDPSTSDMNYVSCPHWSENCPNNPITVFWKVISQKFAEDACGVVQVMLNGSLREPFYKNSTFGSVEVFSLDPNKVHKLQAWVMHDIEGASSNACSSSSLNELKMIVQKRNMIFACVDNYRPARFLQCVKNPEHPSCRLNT

[5] = biological target: T5, His-tagged human CD38 (ACRO Biosystems cat #CD8-H5224) (human, UniProt P28907 43-300); experiment: SPR, captured scFv-Fc, His-CD38 analyte;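 further: SPR on a Carterra LSA, scFv-Fc captured by anti-human Fc on HC30M chip, His-tagged CD38 (human, mouse, cynomolgus) flowed as analyte in eight 1:2 steps from 400 nM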
T5 construct: bought recombinant protein with His tag

[6] = biological target: T3, His-tagged cynomolgus monkey CD38 (ACRO …); experiment: ELISA, coated His-CD38
[7] = biological target: T5, His-tagged human CD38 (ACRO Biosystems …); experiment: ELISA, coated His-CD38
[8] = biological target: T4, His-tagged mouse CD38 (ACRO Biosystems …); experiment: ELISA, coated His-CD38

B2: 40566p1.A7 (scFv, V domains shown)
VH: RELVESGGGVVRPGESLRLSCAASGFTFDNYDMTWVRQAPGEGLEWVSFISSRGTFTYYTDSVRGRFTISRDNSKNTLYLEMNSLRAEDTAIYYCAKDSGEYYFFDYWGLGTLVTVSS
VL: EIVMTQSPATLSVSPGERATFSCRASQSVNSKLAWYQQKPGQAPRLLIYGASRRATGIPDRFSGSGSGTEFTLTISSLQSEDFAVYYCQQYYDWPPLTFGGGTKVEIK
notes: tested as scFv-Fc supernatant
FACs 10 ug/ml (percent gated) [1]: 72.8%
FACs 10 ug/ml (percent gated) [2]: 14.2%
Kd [3]: 2.66 nM
Kd [4]: 1.31 nM
Kd [5]: 202000 nM
ELISA 1 ug/ml [6]: 1.85
ELISA 1 ug/ml [8]: 2.12
ELISA 1 ug/ml [7]: 1.99

B3: 40566p1.D2 (scFv, V domains shown)
VH: DVQLVESGGGVVRPGESLRLSCAASGFTFDNYDMTWVRQAPGEGLEWVSFISSRGTFTYYTDSVKGRFTISRDNSKNTLYLQMNSLRAEDTAIYYCTKDSGEYYFFDYWGLGTLVTVSS
VL: B2 VL
notes: tested as scFv-Fc supernatant
FACs 10 ug/ml (percent gated) [1]: 71.2%
FACs 10 ug/ml (percent gated) [2]: 20.1%
Kd [3]: 29.8 nM
Kd [4]: 1.74 nM
Kd [5]: 11.8 nM
ELISA 1 ug/ml [6]: 1.83
ELISA 1 ug/ml [8]: 1.74
ELISA 1 ug/ml [7]: 1.96

B4: 40566p1.B3 (scFv, V domains shown)
VH: B3 VH with K65R, Q82E, T97A
VL: B2 VL
notes: tested as scFv-Fc supernatant
FACs 10 ug/ml (percent gated) [1]: 74.1%
FACs 10 ug/ml (percent gated) [2]: 21.1%
Kd [3]: 5.68 nM
Kd [4]: 1.32 nM
Kd [5]: 43800 nM
ELISA 1 ug/ml [6]: 1.81
ELISA 1 ug/ml [8]: 1.93
ELISA 1 ug/ml [7]: 1.89

B7: 40566p1.C9 (scFv, V domains shown)
VH: B3 VH
VL: B2 VL with I2T, G50D, Y87F
notes: tested as scFv-Fc supernatant
FACs 10 ug/ml (percent gated) [1]: 76.9%
FACs 10 ug/ml (percent gated) [2]: 31.3%
Kd [3]: 4.67 nM
Kd [4]: 0.351 nM
Kd [5]: 0.269 nM
ELISA 1 ug/ml [6]: 1.66
ELISA 1 ug/ml [8]: 1.97
ELISA 1 ug/ml [7]: 1.83

The remaining binders from weak to strong by Kd [4], led by results:

FACs 10 ug/ml (percent gated) [1]: 49.9%
FACs 10 ug/ml (percent gated) [2]: 6.05%
Kd [3]: 549 nM
Kd [4]: 224 nM
Kd [5]: 104 nM
ELISA 1 ug/ml [6]: 1.44
ELISA 1 ug/ml [8]: 1.24
ELISA 1 ug/ml [7]: 1.43
B5: 40566p1.B11 (scFv, V domains shown)
VH: B3 VH with V11L, T97A
VL: B2 VL with G64E, Y92H
notes: tested as scFv-Fc supernatant

FACs 10 ug/ml (percent gated) [1]: 62.8%
FACs 10 ug/ml (percent gated) [2]: 71.7%
Kd [3]: 114 nM
Kd [4]: 51.6 nM
Kd [5]: 86.7 nM
ELISA 1 ug/ml [6]: 1.89
ELISA 1 ug/ml [7]: 1.94
B1: 40596p1.H7 (scFv, V domains shown)
VH: EVQLLESGGGLVQPGGSLRLSCAASGFDFSTYAMTWVRQAPGKGLEWVAGNGWSGSFTYYADSVKGRFTVSRDNSKNTLYLQMNSLRAEDTAVYYCTRNPGFGEMDVWGQGTTVTVSS
VL: EIVLTQSPGTLRLSPGERATLSCRASQTVGTTLAWYQQKPGQAPRLLIHGASTRATDIPDRFSGSGSGTEFTLTISSLQSEDFADYYCQQYKSWPPLTFGGGTKVEIK
notes: tested as scFv-Fc supernatant

FACs 10 ug/ml (percent gated) [1]: 75.3%
FACs 10 ug/ml (percent gated) [2]: 26.4%
Kd [4]: 0.478 nM
Kd [5]: 465 nM
ELISA 1 ug/ml [6]: 1.74
ELISA 1 ug/ml [8]: 1.86
ELISA 1 ug/ml [7]: 1.92
B6: 40566p1.C1 (scFv, V domains shown)
VH: B3 VH
VL: B2 VL with I2T
notes: tested as scFv-Fc supernatant

FACs 10 ug/ml (percent gated) [1]: 76%
FACs 10 ug/ml (percent gated) [2]: 32%
Kd [3]: 3880 nM
Kd [4]: 0.375 nM
ELISA 1 ug/ml [6]: 1.95
ELISA 1 ug/ml [8]: 2.17
ELISA 1 ug/ml [7]: 1.83
B8: 40566p1.F1 (scFv, V domains shown)
VH: B3 VH
VL: B2 VL with I2T, S31G, G50D
notes: tested as scFv-Fc supernatant; also called 40566p1.Fl
